# According to patent US20250057951A1, “DISCERNIBLE CELL SURFACE PROTEIN VARIANTS OF CD117 FOR USE IN CELL THERAPY” (UNIVERSITÄT BASEL, priority 2021, published 2025):
# B1: Refmab #1: anti-CD117 antibody, VH SEQ ID 15, VL SEQ ID 16, human IgG1 Fc silent (AEASS); also tested as Fab (antibody, V domains shown)
# VH: QVQLQQPGAELVKPGASVKMSCKASGYTFTSYNMHWVKQTPGQGLEWIGVIYSGNGDTSYNQKFKGKATLTADKSSSTAYMQINSLTSEDSAVYYCARERDTRFGNWGQGTLVTVSA
# VL: NIVLTQSPASLAVSLGLRATISCRASESVDIYGNSFMHWYQQKPGQPPKLLIYLASNLESGVPARFSGSGSRTDFTLTIDPVEADDAATYYCQQNNEDPYTFGGGTKLEIK
# modifications: human IgG1 Fc silent (AEASS); Refmab #1 VH; Refmab #1 VL
# notes: also tested as Fab
# B2: Refmab #1-Bert: improved version of Refmab #1, VH SEQ ID 15, VL SEQ ID 63 (antibody, V domains shown)
# VH: B1 VH
# VL: EIVLTQSPSSLSASVGDRVTITCRASESVDIYGESFMHWYQQKPGKAPKLLIYLASNLESGVPSRFSGSGSGTDFTLTISSLQPEDFATYYCQQNKEEPYTFGQGTKLEIKRTV
# modifications: Refmab #1 VH
# Columns and labels:
# wild type TF-1 cells = test: Inhibition of SCF-dependent proliferation, wild type TF-1 cells; format: cell-based, human; conditions: for effect on SCF-dependent proliferation of wild type TF-1 cells: 100 ng/ml SCF, increasing concentrations, 3 days
# Method: (§1) SCF-dependent proliferation is another function of CD117. SCF-dependent proliferation was measured as follows: TF-1 cells were seeded at a cell concentration of 150 000 cells/ml in sterile, white cell culture treated plates in RPMI Media+10% FCS. Cells were treated with 100 ng/ml of SCF and a titration of various CD117 antibodies or an isotype control antibody at different concentrations. After 3 days of incubation a CellTiter-Glo 2.0 assay (Promega) was performed and luminescence was read in a luminometer (e.g. Envision or Phera Star plate readers).
# (§2) Next, proliferation of the variants was tested with increasing concentrations of RefMab #1 at a constant concentration of SCF (100 ng/ml). TF-1 cells were seeded at a cell concentration of 150 000 cells/ml in sterile, white cell culture treated plates with transparent bottom in RPMI+GlutaMax+10% FCS and a fix concentration of 100 ng/ml SCF in the media, Cells were treated with different concentrations of RefMab #1. After 3 days of incubation a CellTiter-Glo 2,0 assay (Promega) was performed, luminescence was read in a luminometer (Envision plate reader).
# variants of CD117 = test: Blocking of SCF-induced CD117 phosphorylation (Tyr719 ELISA), TF-1 cells with CD117 variants; format: cell-based, human; conditions: 100 ng/ml SCF 5 minutes
# Method: (§3) SCF-dependent phosphorylation is another function of CD117. SCF-dependent phosphorylation was measured using TF-1 cells expressing CD117 (as shown in previous experiments). TF-1 cells were seeded at a concentration of 1 million cells/ml in 1 ml of Medium (RPMI1640 supplemented with GlutaMAX+10% heat inactivated FBS) in a 6-well plate. Cells were treated with 0.5 ug/mL antibody or 500 nM avapratinib. Cells were then treated with 100 ng/ml recombinant human SCF (1 mg/ml PeproGMP® Recombinant Human SCF) for 5 minutes, before cell collection. Cells were washed with ice-cold PBS, before resuspending cells in 250 μL Lysis Buffer (Lysis buffer from Signaling containing Protease Inhibitor and Phosphatase Inhibitor). Cells were flash frozen in liquid nitrogen and thawed at 37° C. twice, before freezing them at −80° C. until further usage. Undiluted samples were thawed and processed according to the manufacturers protocol for the PathScan® Phospho-c-Kit (Tyr719) Sandwich ELISA Kit (Cell Signaling). Absorbance (OD_450 nm) was assessed using the Envision (Perkin Elmer).
# (§4) TF-1 cells (wild type, and variants E73K, E73Y, D121K, S123F and S123K of CD117) were seeded at a concentration of 1 million cells/mL in 2 ml of Medium (RPMI1640 supplemented with GlutaMAX+10% heat inactivated FBS) in a 6-well plate. Cells were pre-treated with 0.5 μg/ml of antibodies Refmab #1-Ernie or Refmab #1-Bert for 30 minutes, before adding 100 ng/ml recombinant human SCF (1 mg/mL PeproGMP® Recombinant Human SCF) for 5 minutes. Cells were collected, washed once with ice-cold PBS and resuspended in 500 μL Lysis Buffer (Lysis buffer from Signaling containing Protease Inhibitor and Phosphatase Inhibitor). Cells were then flash frozen in liquid nitrogen and thawed at 37° C. twice, before freezing them at −80° C. until further usage. Undiluted samples were thawed and processed according to the manufacturers protocol for the PathScan Phospho-c-Kit (Tyr719) Sandwich ELISA Kit (Cell Signaling) or the Human c-Kit (CD117) ELISA Kit (Abcam). Absorbance (OD_450 nm) was assessed using the Envision (Perkin Elmer).
# HSPC's = test: Inhibition of SCF-dependent proliferation, HSPCs; format: cell-based, human
# Method: For human CD34+ HSCs (different donors) cells are seeded in X-Vivo 20 medium with 100 ng/ml SCF, 50 ng/ml TPO and 50 ng/ml FLT-3 Ligand in sterile white cell culture treated plates at a cell density of 30 000 cells/ml. HSCs are then treated with various CD117 antibodies or an isotype control antibody at different concentrations and plates are incubated for 5 days. After 5 days a CellTiter-Glo 2.0 assay (Promega) is performed and luminescence is read in a luminometer (e.g. Envision or Phera Star plate readers).
# CD117 = test: Blocking of SCF-induced CD117 phosphorylation (Tyr719 ELISA), wild type TF-1 cells; format: cell-based, human; conditions: 0.5 ug/mL antibody or 500 nM avapritinib; 100 ng/ml SCF 5 minutes
# Method: as §3, §4
# [1] = tested on: TF-1 cells with knock-ins of CD117 variants; test: Inhibition of SCF-dependent proliferation, TF-1 cells with CD117 variant knock-in; format: cell-based, human; conditions: 100 ng/ml SCF; increasing concentrations; 3 days; E73K; all variants tested; listed as RefMab #1
# Method: as §1
# CD117 wild-type TF-1 cells were compared to TF1 cells with a E73K knock in. […] Both KI1 and KI2 were obtained upon sorting the edited TF1 cells using the SONY MA900, removing any wild-type and knock out cells from the final subsets, thus yielding high purity of knock in.
# as §2
# CD34+ progenitor cells = test: Additional HSC depletion experiment in NBSGW mice with edited HSPCs; format: in vivo; conditions: 4 mg/kg i.v. days 7, 9, 11, 12, 16 weeks, vs isotype control
# Method: (§5) Depletion of human HSCs in mice using various mAbs was adapted from Pang et al. (Blood (2019) 133:2069-78).
# NBSGW mice (Jackson Laboratories) were injected with 1 Mio HSPCs from 2 different donors carrying a E73K, S123K or D121K variant of CD117. Control groups of mice received unedited electroporation control HSPCs. 7, 9, 11 and 12 days after cell injection mice received 4 mg/kg antibody Refmab #1-Bert per dose i.v. 16 weeks later the mice were euthanized and blood, spleen and bone marrow were analyzed by FACS. To identify unedited and edited cells the CD117-specific antibody clones 104D2 and SR-1 were used. […] Cells were classified as unedited (104D2+ and SR-1+) or edited (104D2+ but SR-1−) based on double staining with both anti-CD117 clones.
# CD117+ myeloid cells = test: Depletion experiment in NSG mice with E73K gene-edited HSPCs; format: in vivo; conditions: 25 mg/kg i.v. days 8, 10, 12, 14; 16 weeks; vs isotype control
# Method: In another experiment, NSG mice (Jackson Laboratories) were sub-lethally irradiated one day before injection with 1 Mio gene-edited HSPCs carrying a E73K variant of CD117. 8, 10, 12 and 14 days after cell injection mice received 25 mg/kg antibody Refmab #1-Bert or 25 mg/kg isotope control antibody i.v. per dose. 16 weeks later the mice were euthanized, and blood, spleen and bone marrow were analyzed by FACS.
# CD117+ myeloid cells were identified by FACS as live/hCD45+/CD33+/CD117+. […] Clone 104D2 was used as an expression control. Cells were classified as not edited (104D2+ and SR-1+) or E73K edited (104D2+ but SR-1−) based on double staining with anti-CD117 clone SR-1 and anti-CD117 clone 104D2.
# human HSCs = test: HSC depletion in NBSGW mice engrafted with human HSPCs; format: in vivo; conditions: 25 mg/kg i.v. days 8, 10, 12, 14; analysis 16 weeks later; vs isotype control; live/hCD45+/CD34+/CD38−/CD45RA−/CD90+
# Method: as §5
# NBSGW mice (Jackson Laboratories) were injected with 1 Mio HSPCs. 8, 10, 12 and 14 days after cell injection mice received 25 mg/kg antibody Refmab #1-Bert per dose i.v. 16 weeks later the mice were euthanized and blood, spleen and bone marrow were analysed by FACS. […] HSCs were identified by FACS as live/hCD45+/CD34+/CD38−/CD45RA−/CD90+.
molecule,measurement,setting,value
B1,effect on SCF-dependent proliferation of wild type TF-1 cells,wild type TF-1 cells,decrease in proliferation
same,effect on SCF-dependent proliferation of wild type TF-1 cells,wild type TF-1 cells; listed as RefMab #1,pronounced effect
same,IC50 in SCF-dependent proliferation assay,wild type TF-1 cells; TF-1 cells,0.2760 µg/mL
same,"blocking of SCF-induced phosphorylation, E73K variant",variants of CD117; 0.5 ug/mL antibody or 500 nM avapritinib,unaffected
same,IC50 in SCF-dependent proliferation assay,HSPC's,0.0623 µg/mL
same,"blocking of SCF-induced phosphorylation, wild type cells",CD117,can be blocked
same,effect on SCF-dependent proliferation of TF-1 cells with CD117 variants,[1],not affected
B2,"blocking of SCF-dependent CD117 phosphorylation, D121K and S123K variants","variants of CD117; 0.5 μg/ml antibody 30 minutes, same for E73K, E73Y, S123F (data not shown)",unaffected
same,"effect on E73K, D121K and S123K-edited cells",CD34+ progenitor cells,"enrichment of E73K, D121K and S123K-edited variant cells"
same,effect on unedited CD34+ progenitor cells,CD34+ progenitor cells; live/hCD45+/CD34+/CD38−,depletion of unedited CD34+ progenitor cells
same,"blocking of SCF-induced phosphorylation, wild type cells",CD117,blocked
same,effect on E73K variant CD117+ myeloid cells in bone marrow,CD117+ myeloid cells,enrichment of E73K variant cells
same,effect on unedited CD117+ myeloid cells in bone marrow,CD117+ myeloid cells,depletion of unedited cells
same,bone marrow HSC depletion,human HSCs,in vivo depletion of HSCs
